Source: patent US11571484B2, “Compositions that target tumor-associated macrophages and methods of use therefor” (Sanford Burnham Prebys Medical Discovery Institute, priority 2017, dated 2023)
Values belong to the substance of their own block, whether it stands above or below them. Ends that are not written are not given here. FAM = 5(6)-carboxyfluorescein; Ahx = NCCCCCC(=O)O

Experiments:
recombinant mouse CD163 = target: T1, recombinant mouse CD163 (Mus musculus, UniProt Q2VLH6); assay: Fluorescence anisotropy assay with recombinant CD163; format: binding; conditions: 50 nM FAM peptide, 1 μM protein, 25 °C
T1 construct: purchased R&D Systems 7435-CD-050
T1 sequence (Q2VLH6 39-1121): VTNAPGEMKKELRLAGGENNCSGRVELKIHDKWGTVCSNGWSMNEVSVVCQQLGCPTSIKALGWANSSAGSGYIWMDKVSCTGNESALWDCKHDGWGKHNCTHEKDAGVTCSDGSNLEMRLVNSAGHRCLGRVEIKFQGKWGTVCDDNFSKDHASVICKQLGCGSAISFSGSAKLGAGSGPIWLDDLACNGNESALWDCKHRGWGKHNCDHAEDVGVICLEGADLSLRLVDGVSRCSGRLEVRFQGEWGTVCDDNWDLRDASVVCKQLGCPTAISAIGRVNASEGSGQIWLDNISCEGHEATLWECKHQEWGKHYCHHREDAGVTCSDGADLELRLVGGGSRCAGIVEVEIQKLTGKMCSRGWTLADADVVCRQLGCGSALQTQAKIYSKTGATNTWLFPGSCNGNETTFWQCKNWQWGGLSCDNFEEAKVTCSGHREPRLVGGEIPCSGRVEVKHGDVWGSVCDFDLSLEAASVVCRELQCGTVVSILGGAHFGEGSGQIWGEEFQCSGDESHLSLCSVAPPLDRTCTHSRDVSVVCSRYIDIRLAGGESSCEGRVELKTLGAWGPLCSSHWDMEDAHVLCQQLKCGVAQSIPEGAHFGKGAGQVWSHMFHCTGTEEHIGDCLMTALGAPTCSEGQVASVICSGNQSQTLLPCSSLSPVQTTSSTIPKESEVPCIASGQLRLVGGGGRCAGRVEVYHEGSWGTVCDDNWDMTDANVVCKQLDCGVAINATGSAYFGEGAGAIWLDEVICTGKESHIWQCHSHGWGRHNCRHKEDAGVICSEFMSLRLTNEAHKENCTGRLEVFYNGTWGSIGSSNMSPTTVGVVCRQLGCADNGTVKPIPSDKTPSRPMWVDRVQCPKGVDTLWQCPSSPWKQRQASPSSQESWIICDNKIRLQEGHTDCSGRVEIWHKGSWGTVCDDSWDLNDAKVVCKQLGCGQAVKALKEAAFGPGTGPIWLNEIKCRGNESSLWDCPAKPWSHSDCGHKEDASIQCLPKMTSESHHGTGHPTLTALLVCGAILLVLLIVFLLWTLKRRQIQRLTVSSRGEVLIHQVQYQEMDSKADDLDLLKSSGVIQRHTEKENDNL
Experimental: The recombinant mouse macrophage mannose receptor rmMMR/CD206 (R&D Systems, catalog number: 2535-MM-050) and recombinant mouse CD163 (R&D Systems, catalog number: 7435-CD-050) were reconstituted at 1 mg/ml in IB, aliquoted and stored at −20° C. To generate linearized version of cyclic FAM-UNO peptide, the peptide at 1 mM concentration was preincubated for 24 h at room temperature in a dark place with 3 mM DTT and diluted with IB 2×10^5 times before the FA assay. The control experiment with FAM-CPMTDNE peptide (FIG. 22) was performed to rule out the possibility of disulphide bond formation, which could affect the binding properties of linear peptides. […]
Fluorescence anisotropy was also carried out using recombinant human macrophage mannose receptor rhMMR/CD206 to determine whether UNO peptide interactions with mouse CD206 carried over to human CD206. […]
In all experiments, FA signal measurements were done under pseudo first-order conditions with 50 nM singly labelled FAM peptides and 1 μM proteins. […] Assays were carried out in kinetic mode in a total volume of 30 μl at 25° C. on the PHERAstar (BMG Labtech, Germany) microplate reader using an optical module with excitation and emission filters of 485 nm (slit 10 nm) and 520 nm (slit 10 nm), respectively. […] FA signals at time t after initiation of binding reaction was calculated as parameters r(t) from the equation: […]

MEMs in WT-GBM tumors = assay: Free peptide homing and immunofluorescence in the orthotopic WT-GBM glioblastoma model; conditions: 30 nmoles i.v., 2 h
Experimental: (§1) Thirty nmoles of FAM-UNO or FAM-control peptide were injected intravenously into mice and allowed to circulate for 2 h. Mice were then sacrificed and tumor and tissues were analyzed by immunofluorescence using rabbit anti-FAM (green) and rat anti-CD206 (red) antibodies, and counterstained with DAPI. […] The metastases were induced by i.v. inoculation of B16F10 melanoma cells. […] Blue: DAPI. Representative fields from multiple sections (n≥3) prepared from at least 3 tumors are shown. Scale bar: 50 μm. Images shown are representative fields from multiple sections (≥3) prepared from at least 3 tumors (n≥3 mice). The graphs show mean+SEM of FAM signal quantified as described in Materials and Methods.
(§2) Tumor models were induced according to protocols approved by the Estonian Ministry of Agriculture, Committee of Animal Experimentation (permit #48). For the 4T1 breast model, 8-week old female Balb/c mice were injected in the mammary fat pad with 10^6 cells dispersed in 50 μL of PBS. For homing studies, mice were used 10 days later, when the tumor had reached ˜150 mm^3. For MCF-7 breast model, 8-week old female nude mice were implanted with an estrogen pellet, and 1 week later inoculated with 5×10^6 MCF-7 cells in 100 μL of cold Matrigel (BD Biosciences, CA, USA). Mice were used for homing studies three weeks later (tumor volume˜150 mm^3). For the metastatic gastric carcinoma, 10^6 MKN45-P cells in PBS were injected intraperitoneally in 8-week old female nude mice. Mice were used for homing studies two weeks later. For the metastatic melanoma model, 2×10^5 B16F10 cells were injected intravenously in 100 μL of PBS in C57 BL6 mice. The mice were used for homing studies 10 days after. For the angiogenic glioblastoma model, WT-GBM 24, 7×10^5 cells were stereotactically injected in the right striatum of Fox/Nu mice 2 mm lateral and posterior of bregma of 2.5 mm deep. The mice were used for homing studies 6-7 days after the injection.
For free peptide homing studies, mice were injected intravenously with 30 nmoles of FAM-peptides in 100 μL of PBS. For nanoparticle homing studies-FAM-UNO—NP-PTX-, mice were injected intravenously in mice bearing MCF-7 breast tumors with 1 mg of Polymer in 100 μL pf PBS and allowed to circulate for 6 h. For tissue collection, the mice were anesthetized and the tissues collected and immediately placed in 4% cold PFA and left overnight at 4-C. Tissues were washed with PBS for 2 h at room temperature and cryoprotected with sucrose 15% at 4-C overnight and then in sucrose 30% at 4·C overnight. […] FAM was detected using Rabbit anti-FITC (Invitrogen, CA, USA. Catalog # A-889) at a dilution of 1/100 and using Alexa Fluor-546 anti-rabbit antibody (Invitrogen, Ca, USA. Catalog # A-11035) at a dilution of 1/200.

MEMs in MKN45-P tumors = conditions: 30 nmoles i.v., 2 h
Experimental: as §1
as §2, with “For the angiogenic glioblastoma model, WT-GBM 24, 7×10^5 cells were stereotactically injected in the right striatum of Fox/Nu mice 2 mm lateral and posterior of bregma of 2.5 mm deep. The mice were used for homing studies 6-7 days after the injection.” left out
For free peptide homing studies, mice were injected intravenously with 30 nmoles of FAM-peptides in 100 μL of PBS. […] FAM was detected using Rabbit anti-FITC (Invitrogen, CA, USA. Catalog # A-889) at a dilution of 1/100 and using Alexa Fluor-546 anti-rabbit antibody (Invitrogen, Ca, USA. Catalog # A-11035) at a dilution of 1/200.

[1] = 4T1 tumor lysate, injected within 1 min
Experimental: High-performance liquid chromatography (Agilent 1200 series, USA)-mass spectrometry (SciexQ-Trap 4500, Canada) analysis was done using a C18 column (Kinetex 2.6 μm EVO C18 100×4.6 mm, Phenomenex, USA). Ionization was performed at 300° C. with declustering potential set 30 V. Chromatography gradient started with 2 min 5% acetonitrile in water, followed by linear increase to 95% acetonitrile in 10 min and finally 10 min isocratic flow of 95% acetonitrile in water. Both eluents, water and acetonitrile, contained 0.2% formic acid. Flow rate was 0.3 ml/min. Column temperature was maintained at 40° C. Autosampler temperature was set to 37° C. Retention times and m/z signals of FAM-UNO, were determined from 30 μM FAM-UNO solution in PBS. Tumor lysate was split into two aliquots of 200 μL in each. From one aliquot, 20 μL were injected and the LC-MS profile obtained. The second aliquot was mixed with 50 μL of 30 μM FAM-UNO in PBS and injected within 1 min to LC-MS and the LC-MS profile obtained.

sentinel lymph node = assay: Ex vivo organ imaging after i.p. injection in 4T1 tumor-bearing mice; set-up: species or system mouse; conditions: 30 nmoles i.p., 2 h, signal normalized to tissue weight, ratio tissue/kidney
Experimental: A, FAM-UNO and FAM-LyP-1 were injected i.p. at doses of 30 nmoles in 4T1 tumor-bearing mice. Peptides were allowed to circulate for two h, mice were then sacrificed, and the organs were collected and imaged with the live imaging system MX3 Art Optix in the FITC channel with laser excitation. B, The signal in each organ was quantified, normalized to the tissue weight and the ratio tissue/kidney was graphed in bar graph. LyP-1 is a peptide that targets p32 protein on the surface of activated macrophages. Results from n=3 mice. Bars of panel B represent mean+SEM.

change in fluorescence anisotropy with CD163 (recombinant mouse CD163): no change in anisotropy
Substance: FAM-CSPGAK: FAM-labeled linear CSPGAK (SEQ ID NO: 6) (not fully specified; FAM label)

Substance: FAM-UNO: FAM-labeled UNO peptide CSPGAKVRC (SEQ ID NO: 1); 5(6)-carboxyfluorescein with 6-aminohexanoic acid spacer at the N-terminus ({FAM-Ahx}-CSPGAKVRC; cysteine pairing not given here)
accumulation in tumor (MEMs in WT-GBM tumors): accumulated in the tumor areas containing MEMs
signal in normal brain parenchyma (MEMs in WT-GBM tumors): No signal
accumulation in MEMs / CD206+ cells (MEMs in MKN45-P tumors): accumulated in MEMs
fate of the disulfide bridge on incubation with tumor lysate [1]: the disulfide bridge was reduced to yield a linear peptide
accumulation of FAM in the sentinel lymph node versus FAM-LyP-1 (sentinel lymph node): significantly higher accumulation of the FAM in the sentinel lymph node
